Data on two molecules can be found in patent US20210008207A1 (TECHNISCHE UNIVERSIT T M NCHEN, published 2021).

The target in one test is T1, CEACAM8 (human (species not restated for this …, UniProt P31997)).
T1 sequence: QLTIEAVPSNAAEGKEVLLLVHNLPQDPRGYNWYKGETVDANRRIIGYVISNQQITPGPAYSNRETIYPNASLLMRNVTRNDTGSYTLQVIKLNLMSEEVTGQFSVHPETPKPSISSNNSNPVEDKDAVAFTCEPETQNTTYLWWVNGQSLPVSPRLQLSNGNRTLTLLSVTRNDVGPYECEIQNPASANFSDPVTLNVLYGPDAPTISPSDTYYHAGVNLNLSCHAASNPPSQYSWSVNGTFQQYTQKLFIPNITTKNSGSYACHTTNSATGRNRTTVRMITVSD
The test is described as follows: ELISA, panel CEACAM8; protein titrated [cont.) f].

Another test concerns the target T2, CEACAM5 (human (species not restated for this …, UniProt P06731)).
T2 sequence: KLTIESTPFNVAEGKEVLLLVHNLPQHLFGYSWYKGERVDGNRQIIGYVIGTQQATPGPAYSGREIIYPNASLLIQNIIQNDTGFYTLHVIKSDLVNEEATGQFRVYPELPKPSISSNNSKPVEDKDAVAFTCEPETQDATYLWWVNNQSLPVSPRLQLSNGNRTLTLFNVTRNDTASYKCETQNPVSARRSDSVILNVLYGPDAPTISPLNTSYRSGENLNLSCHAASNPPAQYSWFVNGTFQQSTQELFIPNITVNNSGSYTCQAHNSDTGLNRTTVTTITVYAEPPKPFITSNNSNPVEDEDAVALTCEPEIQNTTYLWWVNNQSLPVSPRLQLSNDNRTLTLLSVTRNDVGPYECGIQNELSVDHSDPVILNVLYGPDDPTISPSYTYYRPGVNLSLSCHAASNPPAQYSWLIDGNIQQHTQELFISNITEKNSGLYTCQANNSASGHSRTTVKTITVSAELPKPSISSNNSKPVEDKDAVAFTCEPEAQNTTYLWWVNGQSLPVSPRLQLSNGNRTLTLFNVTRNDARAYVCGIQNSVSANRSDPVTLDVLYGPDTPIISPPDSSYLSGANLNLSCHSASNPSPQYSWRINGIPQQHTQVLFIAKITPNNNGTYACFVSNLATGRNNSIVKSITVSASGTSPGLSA
The test can be described thus: ELISA, panel CEACAM5; HopQ fragment titrated [cont.) f].

The target in test [1] is T3, recombinant human CEACAM1 N-domain (C1ND; residues 35-142) with C-terminal Strep-Tag II, made in Expi293 cells (human, UniProt P13688 35-142, N-glycosylated (three glycosylation forms beside the non-glycosylated protein)).
T3 construct: range 35-142; also called N-terminal domain of human CEACAM1; huCEACAM1-ND; not shown: C-terminal Strep-Tag II
T3 sequence: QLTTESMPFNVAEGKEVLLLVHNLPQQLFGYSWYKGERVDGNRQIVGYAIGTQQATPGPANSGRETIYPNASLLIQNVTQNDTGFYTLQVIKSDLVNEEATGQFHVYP
The test can be described thus: ITC; 25 µM C1ND in the cell titrated with 250 µM HopQ^AD, 25 °C.

The target in test [2] is T3, recombinant human CEACAM1 N-domain …. The test can be described thus: ELISA; C1ND coated, HopQ fragment titrated, α-6×His-HRP detection.
For test [3], the target named is T4, E. coli expressed human CEACAM1 N-domain (Ec-C1ND) with C-terminal His6 tag, non-glycosylated (human, UniProt P13688 35-142).
T4 construct: range 35-142; also called non-glycosylated N-terminal domain of human CEACAM1; hC1ND
T4 sequence: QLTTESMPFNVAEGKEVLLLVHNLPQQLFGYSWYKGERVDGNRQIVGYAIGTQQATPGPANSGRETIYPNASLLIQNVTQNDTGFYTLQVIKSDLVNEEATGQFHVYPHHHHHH
The test is described as follows: ITC; 25 µM Ec-C1ND in the cell titrated with 250 µM HopQ^AD, 25 °C.

The target of test [4] is T3, recombinant human CEACAM1 N-domain …. The test can be described thus: isothermal titration calorimetry, 25 °C; ITC in solution, folded glycosylated C1ND (FIG. 8a).
Test [5] shares this target. The test is described as follows: isothermal titration calorimetry, 25 °C; ITC in solution, folded glycosylated C1ND; stoichiometry, not affinity.
Test [6] has the same target. The test can be described thus: ELISA, C1ND coated, His-tag detected.

B1: HopQ adhesin domain (HopQ^AD), type I HopQ fragment of H. pylori strain G27, residues 37-463 (residu (other)
chain: AVQKVKNADKVQKLSDTYEQLSRLLTNDNGTNSKTSAQAINQAVNNLNERAKTLAGGTTNSPAYQATLLALRSVLGLWNSMGYAVICGGYTKSPGENNQKDFHYTDENGNGTTINCGGSTNSNGTHSYNGTNTLKADKNVSLSIEQYEKIHEAYQILSKALKQAGLAPLNSKGEKLEAHVTTSKYQQDNQTKTTTSVIDTTNDAQNLLTQAQTIVNTLKDYCPILIAKSSSSNGGTNNANTPSWQTAGGGKNSCATFGAEFSAASDMINNAQKIVQETQQLSANQPKNITQPHNLNLNSPSSLTALAQKMLKNAQSQAEILKLANQVESDFNKLSSGHLKDYIGKCDASAISSANMTMQNQKNNWGNGCAGVEETQSLLKTSAADFNNQTPQINQAQNLANTLIQELGNNPFRNMGMIASSTTNNGAHHHHHH
notes: also called HopQ^AD I
On to B1, for which the binding result with CEACAM8 is “no binding (tested: 10 µg/well)”. Besides, the figures for the “EC50 (read off the curve)” value (with CEACAM5; in test [2]) were around 0.04 µg/well and around 0.2 µg/well, respectively. For the same molecule, the ΔH in test [1] is -13 kcal/mol; in test [3], -16.7 kcal/mol. The values for the ΔS in test [1] and in test [3] were -13.7 cal/mol/deg and -26.8 cal/mol/deg, respectively. Further, the Kd was 417 nM in test [3] and 296 nM in test [4]. Also, in test [5], the stoichiometry was determined as 1 HopQ^AD per C1ND.

B2: HopQ^ADΔID, HopQ^AD in which amino acids 190-218 of the mature protein (the HopQ insertion domain) are replaced by two glycines (other)
chain: AVQKVKNADKVQKLSDTYEQLSRLLTNDNGTNSKTSAQAINQAVNNLNERAKTLAGGTTNSPAYQATLLALRSVLGLWNSMGYAVICGGYTKSPGENNQKDFHYTDENGNGTTINCGGSTNSNGTHSYNGTNTLKADKNVSLSIEQYEKIHEAYQILSKALKQAGLAPLNSKGGGDAQNLLTQAQTIVNTLKDYCPILIAKSSSSNGGTNNANTPSWQTAGGGKNSCATFGAEFSAASDMINNAQKIVQETQQLSANQPKNITQPHNLNLNSPSSLTALAQKMLKNAQSQAEILKLANQVESDFNKLSSGHLKDYIGKCDASAISSANMTMQNQKNNWGNGCAGVEETQSLLKTSAADFNNQTPQINQAQNLANTLIQELGNNPFRNMGMIASSTTNNGAHHHHHH
notes: also called HopQ-ID deletion mutant; mutant HopQ^AD lacking the HopQ-ID
As to B2, in test [6], the “fold reduction of binding affinity against HopQ^AD” value is around 10 fold. The binding result in the test with CEACAM8 is given as “no binding (tested: 10 µg/well)”. Also, the “EC50 (read off the curve)” value with CEACAM5 is around 0.08 µg/well.
